These are literature values, as cited in publication PMC10653114.

The term pKa denotes the pH at which an ionisable group is half protonated.

The target in one series is Asp43 (UniProt position 417, WTLTFDFPSGQ). The conditions noted are these: 298 K; Conc. 0.10 (unit not given; K+/Cl–).
For another series, the target named is Asp39 (UniProt position 413, PVDGWDLTFSF). As to conditions: 298 K; Conc. 0.10 (unit not given; K+/Cl–).
For another series, the target named is Asp86 (UniProt position 133, GFRNSDRILYS). The conditions noted are these: 298 K; Conc. 0.0 (unit not given; Na+/Cl–).
For another series, the target named is Glu60 (UniProt position 107, IFSNREGKLPG). As to conditions: 298 K; Conc. 0.0 (unit not given; Na+/Cl–).
The target in the next series is Asp12 (UniProt position 59, FDGVADYLQTY). The conditions noted are these: 298 K; Conc. 0.0 (unit not given; Na+/Cl–).
The next series concerns the target Asp22 (UniProt position 69, YHKLPDNYITK). The conditions noted are these: 298 K; Conc. 0.0 (unit not given; Na+/Cl–).
In the next series the target is Asp44 (UniProt position 91, KGNLADVAPGK). The conditions noted are these: 298 K; Conc. 0.0 (unit not given; Na+/Cl–).
Another series addresses Glu73 (UniProt position 120, GRTWREADINY). As to conditions: 298 K; Conc. 0.0 (unit not given; Na+/Cl–).
For another series, the target named is Asp8 (UniProt position 55, VINTFDGVADY). As to conditions: 298 K; Conc. 0.0 (unit not given; Na+/Cl–).
The target of a further series is Glu29 (UniProt position 76, YITKSEAQALG). As to conditions: 298 K; Conc. 0.0 (unit not given; Na+/Cl–).
A further series addresses Asp54 (UniProt position 101, KSIGGDIFSNR). The conditions noted are these: 298 K; Conc. 0.0 (unit not given; Na+/Cl–).
The next series concerns the target Asp101 (UniProt position 148, IYKTTDHYQTF). As to conditions: 298 K; Conc. 0.0 (unit not given; Na+/Cl–).
The target in the next series is Asp93 (UniProt position 140, ILYSSDWLIYK). The conditions noted are these: 298 K; Conc. 0.0 (unit not given; Na+/Cl–).
The target of the next series is Asp75 (UniProt position 122, TWREADINYTS). As to conditions: 298 K; Conc. 0.0 (unit not given; Na+/Cl–).
The target of the next series is Lys26 (UniProt position 61, YFYNAKAGLCQ). In words: NMR (only per the titles of cited refs 78 and 79; not given). The conditions noted are these: 308 K; Conc. 0.0 (unit not given; Na+/Cl– counter-ions in the simulation).
The next series addresses Asp3 (UniProt position 38, KAQRPDFCLEP). The description is as above. As to conditions: 308 K; Conc. 0.0 (unit not given; Na+/Cl– counter-ions in the simulation).
A further series concerns the target Lys15 (UniProt position 50, YTGPCKARIIR). Described as above. The conditions noted are these: 308 K; Conc. 0.0 (unit not given; Na+/Cl– counter-ions in the simulation).
For a further series, the target named is Lys46 (UniProt position 81, KRNNFKSAEDC). The series is described as above. The conditions noted are these: 308 K; Conc. 0.0 (unit not given; Na+/Cl– counter-ions in the simulation).
The next series deals with Glu7 (UniProt position 42, PDFCLEPPYTG). Described as above. The conditions noted are these: 308 K; Conc. 0.0 (unit not given; Na+/Cl– counter-ions in the simulation).
Another series concerns the target Lys41 (UniProt position 76, GGCRAKRNNFK). Described as above. The conditions noted are these: 308 K; Conc. 0.0 (unit not given; Na+/Cl– counter-ions in the simulation).
Another series concerns the target Glu49 (UniProt position 84, NFKSAEDCMRT). The description is as above. As to conditions: 308 K; Conc. 0.0 (unit not given; Na+/Cl– counter-ions in the simulation).
The target in a further series is Asp50 (UniProt position 85, FKSAEDCMRTC). Described as above. As to conditions: 308 K; Conc. 0.0 (unit not given; Na+/Cl– counter-ions in the simulation).

Turning to “Highly charge-depleted protein (PDB 6QFS), S43D variant (Cellulomonas fimi (parent domain; not stated in the article); S43D (on the 6QFS charge-depleted background; background substitutions not stated))”, the pKa with Asp43 is given as 4.37 ± 0.01.
As for “Highly charge-depleted protein (PDB 6QFS), S43D/T66H variant (Cellulomonas fimi (parent domain; not stated in the article); S43D;T66H (on the 6QFS charge-depleted background; background substitutions not stated))”, the pKa in the series with Asp43 was 4.32 ± 0.02.
On to “Highly charge-depleted protein (PDB 6QFS), T39D variant (Cellulomonas fimi (parent domain; not stated in the article); T39D (on the 6QFS charge-depleted background; background substitutions not stated))”, for which, in the series with Asp39, the pKa was 5.
In the case of Barnase (Bacillus amyloliquefaciens), the pKa is 4.2 ± 0.1 in the series with Asp86; 3.4 ± 0.1 in the series with Glu60; 3.6 ± 0.2 with Asp12; 3.3 ± 0.1 in the series with Asp22; 3.6 ± 0.1 in the series with Asp44; 2.1 ± 0.1 with Glu73. Besides, the pKa with Asp8 was 3.1 ± 0.2; with Glu29 it was 3.75 ± 0.05; with Asp54, 2.2 ± 0.3; in the series with Asp101, 2.0 ± 0.2; with Asp93, less than 2.0; in the series with Asp75, 3.1 ± 0.2.
On to “Bovine pancreatic trypsin inhibitor (BPTI) (Bos taurus)”, for which the pKa in the series with Lys26 is on record as 10.60; with Asp3, 3.25 ± 0.15; with Lys15, 10.60; in the series with Lys46 it was 10.30; with Glu7 it was 3.65 ± 0.05; in the series with Lys41, 11.20. Also, the pKa is recorded as 3.75 ± 0.05 in the series with Glu49 and 3.20 ± 0.20 with Asp50.
